Blank lines part the entries; values can stand above or below the binder they belong to.
Tests used:
[1] = target: recombinant mouse Galectin-9 (mouse, UniProt O08573 1-353); assay: SPR
[2] = target: recombinant human Galectin-9 (human, UniProt O00182 1-355); assay: SPR
Chain of recombinant human Galectin-9 (O00182 whole entry): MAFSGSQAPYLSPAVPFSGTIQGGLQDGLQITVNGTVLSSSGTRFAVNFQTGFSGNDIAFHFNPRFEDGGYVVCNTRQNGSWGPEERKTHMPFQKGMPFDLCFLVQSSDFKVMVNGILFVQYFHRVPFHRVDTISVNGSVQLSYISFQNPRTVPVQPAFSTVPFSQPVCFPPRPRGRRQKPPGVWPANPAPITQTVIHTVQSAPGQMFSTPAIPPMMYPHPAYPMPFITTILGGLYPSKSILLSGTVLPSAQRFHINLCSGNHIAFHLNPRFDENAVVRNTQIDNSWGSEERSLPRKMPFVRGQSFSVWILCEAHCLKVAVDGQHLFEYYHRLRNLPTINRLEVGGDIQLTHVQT

Chain of recombinant mouse Galectin-9 (O08573 whole entry): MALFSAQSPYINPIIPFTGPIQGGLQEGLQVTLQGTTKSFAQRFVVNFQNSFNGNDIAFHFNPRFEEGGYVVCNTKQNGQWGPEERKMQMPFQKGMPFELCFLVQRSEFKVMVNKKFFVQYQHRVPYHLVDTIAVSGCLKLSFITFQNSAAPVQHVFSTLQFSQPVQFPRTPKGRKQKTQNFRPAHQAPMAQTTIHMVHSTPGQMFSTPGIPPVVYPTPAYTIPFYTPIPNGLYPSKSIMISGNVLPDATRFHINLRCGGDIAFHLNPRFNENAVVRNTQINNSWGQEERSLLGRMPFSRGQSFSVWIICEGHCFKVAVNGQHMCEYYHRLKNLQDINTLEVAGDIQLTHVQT

Kd [1]: ~11 nM
B1: mouse 4-1BB.Fc, full-length extracellular 4-1BB (CRD1–4, amino acids 24–187) fused to human IgG1 Fc (Fc fusion, UniProt P20334 24-187, looked up)
chain: VQNSCDNCQPGTFCRKYNPVCKSCPPSTFSSIGGQPNCNICRVCAGYFRFKKFCSSTHNAECECIEGFHCLGPQCTRCEKDCRPGQELTKQGCKTCSLGTFNDQNGTGVCRPWTNCSLDGRSVLKTGTTEKDVVCGPPVVSFSPSTTISVTPEGGPGGHSLQVL

Kd [2]: ~35 nM
B2: human 4-1BB.Fc CRD4 mutant (amino acids 119–186) (Fc fusion, UniProt Q07011 119-186, looked up)
chain: DCCFGTFNDQKRGICRPWTNCSLDGKSVLVNGTKERDVVCGPSPADLSPGASSVTPPAPAREPGHSPQ

Kd [1]: ~18 nM
B3: mouse 4-1BB.Fc CRD4 mutant (amino acids 118–187) (Fc fusion, UniProt P20334 118-187, looked up)
chain: TCSLGTFNDQNGTGVCRPWTNCSLDGRSVLKTGTTEKDVVCGPPVVSFSPSTTISVTPEGGPGGHSLQVL
